Molecular target: human CD205 (human)
Assay: cell-based or functional assay

B1: 16A5(CD205_A1), DM4-conjugated anti-CD205 (anti-LY75) monoclonal antibody (antibody, V domains shown)
VH: EVQLVESGGGLVKPGGSLRLSCAASGFTYSNAWMSWVRQAPGKGLEWVGRIKSKTDGGTTDYAAPVQGRFTISRDDSKNTLYLQMNSLKTEDTAVYYCTIFGVVSFDYWGQGTLVTVSS
VL: DVQMTQSPSSLSASVGDRVTITCRASQSISDYLSWYQQRPGKAPNLLIYAASNLKTGVPSRFSGSGSGTDFTLTISTLQPEDFATYYCQQSYRSPWTFGQGTKVEIKR
modifications: conjugated to maytansinoid DM4; attachment residues not stated
EC50 of cytotoxicity on Raji cells (Cell-Titer Glo, 96 h): 0.728 nM
EC50 of cytotoxicity on THP1 cells (Cell-Titer Glo, 96 h): 0.0375 nM

— patent CN117715654A (OXFORD BIOTHERAPEUTICS LTD, dated 2024)
